Experimental findings from paper PMC4762201 (Nature, 2016) are described below.

B2: Prp3 (natural protein)
chain: MPPRNTYEKGNPKRQNSPYYKPSFLRREETTNDEEKFQGHGLKTELHSALKSSNLNLIRRTYQTGENPYLSDPHDRGSSSRFNRRYERGLKFYQKGEISKRIAQERTLQKQQEEEELKRKLKQEEDEKDKRKLIESGDLPNLELHEDKFLLDLSKFKIYYDNNHGYEWWDTAYLDEKGELMEKYDMNGTSPAEEKLAEDIDEVDDDDDDEHPSIRYVAHPLPEKINEAKVSIKAYLTQHERKRLRRNRRKMAREAREIKIKLGLLPKPEPKVKLSNMMSVFENDQNITDPTAWEKVVKDQVDLRKRKHLEENERRHEDAIKRRKEAVNMNVEKPTVYHCKVFQFKNLQNPKIRFKLKMNSKELSLKGLCLRIRDDGPGIIIVVGNEKSCKFYENLVMKRIKWNEDFELHTNTGDIKMDMHNNSISKTWEGYLQDCKFKGWFMKVCNDQDSLLRTLGQFDSEHFYSPVQT
B5: Prp4 (natural protein)
chain: MSKYIALENLPVDLQHKGATQNESTADILKQLPHERLQAVLEKIPEEDLEVRRLLSILKKPEVVENEDVQQRRIRLAEILMVDEIDLENINNMENINGEEVDEEDDEDFFTPATSELIFARRFLINYSLERSRKRLQKEMERHQKFNTRQELLSRRTELQRMANLELAGSQLVSTKPISAVSLSTDDMVVATGSWAGDLQVLNSQTLQPLTQKLDSHVGKIGAIDWHPDSNNQMISCAEDGLIKNFQYSNEEGGLRLLGDLVGHERRISDVKYHPSGKFIGSASHDMTWRLWDASTHQELLLQEGHDKGVFSLSFQCDGSLVCSGGMDSLSMLWDIRSGSKVMTLAGHSKPIYTVAWSPNGYQVATGGGDGIINVWDIRKRDEGQLNQILAHRNIVTQVRFSKEDGGKKLVSCGYDNLINVYSSDTWLKMGSLAGHTDKIISLDISNNSHFLVSGGWDRSIKLWN
B6: Prp31 (natural protein)
chain: MSSEEDYFDELEYDLADEVNEEKEDIQTKKLTTVNCQTEKFNPFEILPESIELFRTLALISPDRLSLSETAQILPKIVDLKRILQQQEIDFIKLLPFFNEIIPLIKSNIKLMHNFLISLYSRRFPELSSLIPSPLQYSKVISILENENYSKNESDELFFHLENKAKLTREQILVLTMSMKTSFKNKEPLDIKTRTQILEANSILENLWKLQEDIGQYIASKISIIAPNVCFLVGPEIAAQLIAHAGGVLEFSRIPSCNIASIGKNKHLSHELHTLESGVRQEGYLFASDMIQKFPVSVHKQMLRMLCAKVSLAARVDAGQKNGDRNTVLAHKWKAELSKKARKLSEAPSISETKALPIPEDQPKKKRAGRKFRKYKEKFRLSHVRQLQNRMEFGKQEQTVLDSYGEEVGLGMSNTSLQQAVGATSGSRRSAGNQAKLTKVMKHRISEANQQADEFLISLGHNTEQPNLSPEMVQMHKKQHTNPEEETNWFSGHG

Assay in all cases: cryo-EM structure
For one assay, the target named is Brr2 (S. cerevisiae, UniProt P32639 1-2163).
The assay “Prp4” deals with B5.
In the assay “Prp3” the target is B2.
In the assay “Prp31” the target is B6.
The next assay deals with T1, Prp6 (S. cerevisiae, UniProt P19735 1-899).
T1 sequence: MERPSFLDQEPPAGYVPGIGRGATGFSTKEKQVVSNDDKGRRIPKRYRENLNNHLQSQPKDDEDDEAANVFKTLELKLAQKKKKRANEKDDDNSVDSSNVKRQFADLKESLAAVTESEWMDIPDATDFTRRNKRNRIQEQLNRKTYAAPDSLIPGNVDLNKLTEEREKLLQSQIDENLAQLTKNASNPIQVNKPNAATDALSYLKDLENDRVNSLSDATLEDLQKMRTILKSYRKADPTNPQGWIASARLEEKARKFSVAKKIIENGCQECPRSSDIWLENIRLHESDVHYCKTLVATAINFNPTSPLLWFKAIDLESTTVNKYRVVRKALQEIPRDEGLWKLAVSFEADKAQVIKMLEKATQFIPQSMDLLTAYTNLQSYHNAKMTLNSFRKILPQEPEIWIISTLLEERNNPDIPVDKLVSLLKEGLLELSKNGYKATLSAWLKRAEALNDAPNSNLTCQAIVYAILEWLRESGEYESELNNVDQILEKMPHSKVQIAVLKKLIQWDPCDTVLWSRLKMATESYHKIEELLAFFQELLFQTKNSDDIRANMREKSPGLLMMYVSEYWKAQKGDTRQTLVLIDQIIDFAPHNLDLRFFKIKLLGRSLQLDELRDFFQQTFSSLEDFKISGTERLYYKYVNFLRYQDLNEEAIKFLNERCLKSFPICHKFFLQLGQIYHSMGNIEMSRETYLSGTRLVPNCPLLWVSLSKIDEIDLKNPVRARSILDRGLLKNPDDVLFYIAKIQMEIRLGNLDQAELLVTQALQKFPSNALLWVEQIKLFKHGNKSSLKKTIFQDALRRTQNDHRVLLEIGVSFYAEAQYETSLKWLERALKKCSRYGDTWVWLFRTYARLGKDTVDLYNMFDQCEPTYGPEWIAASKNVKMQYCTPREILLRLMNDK

Brr2, sequence (P32639 whole entry): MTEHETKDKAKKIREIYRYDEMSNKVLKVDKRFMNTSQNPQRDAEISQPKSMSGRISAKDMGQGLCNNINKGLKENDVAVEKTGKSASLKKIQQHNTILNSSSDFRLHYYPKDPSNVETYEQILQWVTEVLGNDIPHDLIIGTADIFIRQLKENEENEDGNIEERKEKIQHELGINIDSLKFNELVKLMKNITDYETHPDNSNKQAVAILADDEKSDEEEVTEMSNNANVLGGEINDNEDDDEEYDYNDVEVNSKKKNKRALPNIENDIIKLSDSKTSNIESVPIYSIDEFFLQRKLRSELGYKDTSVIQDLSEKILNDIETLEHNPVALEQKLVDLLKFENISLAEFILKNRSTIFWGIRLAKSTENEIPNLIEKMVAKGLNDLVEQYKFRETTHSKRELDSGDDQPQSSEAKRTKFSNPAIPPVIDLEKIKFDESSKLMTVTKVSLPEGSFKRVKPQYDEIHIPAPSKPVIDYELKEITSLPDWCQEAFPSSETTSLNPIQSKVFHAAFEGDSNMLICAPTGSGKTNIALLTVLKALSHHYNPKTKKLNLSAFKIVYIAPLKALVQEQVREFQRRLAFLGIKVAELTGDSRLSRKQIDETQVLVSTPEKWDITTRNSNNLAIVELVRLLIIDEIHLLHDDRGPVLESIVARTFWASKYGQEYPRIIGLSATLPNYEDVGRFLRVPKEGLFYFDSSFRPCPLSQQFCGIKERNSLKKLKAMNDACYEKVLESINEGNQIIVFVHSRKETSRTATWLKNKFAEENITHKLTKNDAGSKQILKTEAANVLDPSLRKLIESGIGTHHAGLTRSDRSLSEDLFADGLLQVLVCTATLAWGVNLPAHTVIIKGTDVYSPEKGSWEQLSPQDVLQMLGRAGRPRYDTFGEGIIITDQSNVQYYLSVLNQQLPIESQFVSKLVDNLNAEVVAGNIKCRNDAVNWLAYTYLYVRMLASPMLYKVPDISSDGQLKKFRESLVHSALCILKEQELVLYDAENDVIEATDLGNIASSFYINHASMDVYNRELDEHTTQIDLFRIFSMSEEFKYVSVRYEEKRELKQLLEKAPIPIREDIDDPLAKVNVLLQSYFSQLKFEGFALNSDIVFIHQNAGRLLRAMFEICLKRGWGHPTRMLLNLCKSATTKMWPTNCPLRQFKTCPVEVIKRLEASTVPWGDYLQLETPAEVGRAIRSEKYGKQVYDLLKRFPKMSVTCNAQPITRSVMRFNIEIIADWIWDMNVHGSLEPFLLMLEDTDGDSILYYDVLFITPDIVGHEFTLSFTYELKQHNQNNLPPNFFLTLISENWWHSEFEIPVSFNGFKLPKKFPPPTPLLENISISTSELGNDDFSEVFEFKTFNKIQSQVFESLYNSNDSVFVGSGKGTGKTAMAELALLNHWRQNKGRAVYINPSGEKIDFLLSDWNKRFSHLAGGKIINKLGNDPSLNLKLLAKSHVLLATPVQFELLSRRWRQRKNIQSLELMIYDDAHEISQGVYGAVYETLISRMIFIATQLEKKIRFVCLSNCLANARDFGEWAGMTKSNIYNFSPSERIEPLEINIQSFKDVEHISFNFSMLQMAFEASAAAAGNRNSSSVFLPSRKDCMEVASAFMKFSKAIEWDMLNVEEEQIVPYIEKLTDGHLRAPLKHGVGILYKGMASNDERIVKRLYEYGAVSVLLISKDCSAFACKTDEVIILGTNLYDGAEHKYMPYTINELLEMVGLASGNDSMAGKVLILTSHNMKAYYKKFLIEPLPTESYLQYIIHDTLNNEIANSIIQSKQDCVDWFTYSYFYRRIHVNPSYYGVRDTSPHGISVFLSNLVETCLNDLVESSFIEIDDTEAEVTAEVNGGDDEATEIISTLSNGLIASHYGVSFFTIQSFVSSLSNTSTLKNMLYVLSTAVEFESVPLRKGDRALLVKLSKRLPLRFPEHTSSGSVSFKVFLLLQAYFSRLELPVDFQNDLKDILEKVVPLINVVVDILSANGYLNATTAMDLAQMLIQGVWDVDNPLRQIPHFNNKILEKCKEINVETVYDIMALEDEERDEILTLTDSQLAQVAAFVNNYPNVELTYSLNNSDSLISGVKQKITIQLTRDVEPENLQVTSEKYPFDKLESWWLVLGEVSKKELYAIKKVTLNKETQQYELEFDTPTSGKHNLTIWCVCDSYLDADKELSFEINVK

B1: Snu66 (natural protein, S. cerevisiae, UniProt Q12420 1-587, looked up)
chain: MNKTENLSIEETNEIREKLGMKPIPVFQEKNTDHKESLSIEETNELRASLGLKLIPPQQNFNSSPPNVHNTSKIDELREKITKFQKKANAPLRMAHLLEETNVNDDSSWLENMDAIPSSHESKRSSTLPRKGATKEDENIDLHNVQVSYNIEALSPKKDTILTLKESSIFDDTDSTEVLENVKAAEENADREKLRLRQMNKDRRQKKKILNVSSLDIEEEEEGEKHSITTTHLIIGAEQGVMKAPNTISAKPPTGKVKVNFDSANNMSDEDGGDFKPLKIKKRKIKDPRSTKARKSKITDKMEIVKLVDEDESLSWMEEEQPVTIINPRTSSNNELKGPEDLAREIEKARDEEKRRTESILKMREISNSIVVDEKVTFLNTLDTSLSERSATENKVKVHGEGEKNIGDVTNGHTKEGSGNNTLTEAVNNEPNYEGDAENAPNFFSGLASTLGYLRKKSVFTTGDVDLKPGKDVNNSESLRRDVRNKEHTGTGTYTKDKLHGLEQFTSSDSSNANTHSKRQDHYDPDIKLVYRDEKGNRLTTKEAYKKLSQKFHGTKSNKKKRAKMKSRIEARKNTPENGSLFEFDDN
As for B1, the binding result in the assay with Brr2 is on record as “binds”.

Take B2: the binding result with Brr2 was “binds”.

B3: Snu13 (natural protein, S. cerevisiae, UniProt P39990 1-126, looked up)
chain: MSAPNPKAFPLADAALTQQILDVVQQAANLRQLKKGANEATKTLNRGISEFIIMAADCEPIEILLHLPLLCEDKNVPYVFVPSRVALGRACGVSRPVIAASITTNDASAIKTQIYAVKDKIETLLI
B3: the binding result in the assay with Prp4, with Prp3 and with Prp31 was “binds” each time.

B4: Dib1 (natural protein, S. cerevisiae, UniProt Q06819 1-143, looked up)
chain: MASVLLPQLRTGWHVDQAIVTETKRLVVIRFGRKNDRQCMIMDELLSSIAERVRNFAVIYLCDIDEVSDFDEMYELTDPMTVMFFYHNKHMMCDFGTGNNNKLNFIVDDKQEMIDILETIFRGARKNKGLVVSPYDYNHKRVS
Consider B4, for which the binding result with Prp31 is on record as “binds”.

For B5, the binding result with Prp3 was “binds”.

B6: the binding result in the assay with Prp6 is given as “binds”.
